This note sets out measurements from article PMC4570271, “Resolution of structure of PIP5K1A reveals molecular mechanism for its regulation by dimerization and dishevelled” (Nature Communications, 2015).

First the molecules themselves.
B1: zebrafish PIP5K1A kinase catalytic domain (residues 49-431), wild type (domain or fragment)
chain: MASTGETTYKKTTSSALKGAIQLGITHSVGSLSQKPERDVLMQDFEVVESIFFPSQGSSSTPGHHHGDFKFKTYAPIAFRYFREMFGIRPDDYLYSLCNEPLIELSNPGASGSLFYVSSDDEFIIKTVQHKEAEFLQTLLPGYFMNLNQNMRTLLPKFYGLYCVQADGKNIRIVVMNNLLPRAVPMHLKFDLKGSTYKRRASPKERSKGVPTYKDLDFMQDMPEGILLENDHYTALSRTMQRDCRVLQSFKIMDYSLLVGIHILHRAGEEASTAVPDTQKKGQGQKPLYCTAIESIQGESKSKTSPQPYESMGGIPAFNSKGERLLVFIGIIDILQSYRLVKKLEHSWKALLHDGDTVSVHRPSFYADRFQKFMCSTVFRKSQLKTLE
notes: kinase catalytic domain of zebrafish PIP5K1Aα, residues 49-431; C-terminal 'Leu-Glu' that precedes the His6 tag; Dimer by SEC/MALLS and in the crystal; also called zPIP5K1A; PIP5K1A kinase domain; not shown: His6, C-terminal, kept
B2: GST-tagged DIX domain of mouse DVL1 (residues 1-106) with Y17D (domain or fragment, UniProt P51141 1-106, looked up)
chain: MAETKIIYHMDEEETPDLVKLPVAPERVTLADFKNVLSNRPVHAYKFFFKSMDQDFGVVKEEIFDDNAKLPCFNGRVVSWLVLAEGAHSDAGSQGTDSHTDLPPPL
notes: DIX domain of mouse DVL1, residues 1-106, Y17D to eliminate DIX aggregation; A longer construct 1-200 (DIX-L) is named in the methods but tied to no experiment; also called DVL DIX; GST-DVL; source: E. coli, purified (glutathione-agarose beads, size-exclusion chromatography)

For data set [1], the target named is B2. Nature of the data set: cell-based or functional assay.
Data set [2] deals with the molecule itself. As to the kind of experiment: SEC-MALS; Superdex S-200 10/30 HR; 10 mM HEPES (pH 7.3), 300 mM NaCl, 5% glycerol, 0.01% TX-100; 0.5 ml/min. For orientation: Size exclusion chromatography separates by hydrodynamic size, large species first.
In data set [3] the target is B1. Nature of the data set: pull-down; GST-DIX (or GST) 0.5 μg and His-tagged PIP5K1 0.5 μg in 200 μl of 10 mM HEPES (pH 7.4), 150 mM NaCl, 0.2% Triton, 0.01% SDS, 3 mM dithiothreitol, 10% glycerol; 4 °C overnight; glutathione beads; western blotting. The note with it: both partners purified. (A western blot detects proteins with antibodies after separation by electrophoresis.)

Data set [4] has as its target T1, zebrafish PIP5K1A kinase catalytic domain, triple D84R/L86A/V291A (DLV) mutant (zebrafish, UniProt Q503I3 49-431, D84R | L86A | V291A).
T1 construct: kinase catalytic domain of zebrafish PIP5K1Aα, residues 49-431; C-terminal 'Leu-Glu' that precedes the His6 tag; Monomeric by SEC/MALLS; also called monomeric mutant DLV; TM-PIP5K; source: E. coli BL21-CodonPlus(DE3)-RIL, purified in the same way as the wild-type protein; not shown: His6, C-terminal, kept
Described as above. The conditions noted are these: both partners purified.

The target of data set [5] is T2, zebrafish PIP5K1A kinase catalytic domain (residues 49-431), wild type (zebrafish, UniProt Q503I3 49-431).
T2 chain: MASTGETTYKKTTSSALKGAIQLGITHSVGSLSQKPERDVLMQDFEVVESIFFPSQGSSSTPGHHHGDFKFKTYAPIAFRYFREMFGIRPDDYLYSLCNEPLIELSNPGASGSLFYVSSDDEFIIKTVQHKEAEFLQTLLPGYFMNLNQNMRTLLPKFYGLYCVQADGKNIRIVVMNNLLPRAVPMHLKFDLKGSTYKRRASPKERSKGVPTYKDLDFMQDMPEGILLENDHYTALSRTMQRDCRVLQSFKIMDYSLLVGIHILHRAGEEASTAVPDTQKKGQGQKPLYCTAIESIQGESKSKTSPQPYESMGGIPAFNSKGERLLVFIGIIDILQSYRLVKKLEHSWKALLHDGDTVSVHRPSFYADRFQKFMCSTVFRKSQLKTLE
As to the kind of experiment: ITC. (In ITC the heat of successive injections is recorded.)

Take B1: in data set [1], the “fold activation of the lipid kinase activity by DIX” value is 3 fold. For the same molecule, the stoichiometry N (in general, the number of molecules, sites or subunits per partner or assembly) in data set [2] worked out at 2.

For the molecule B2, the binding result in data set [3] and in data set [4] was “binds” throughout. In addition, in data set [5], the Kd (commonly the concentration at which binding is half-saturated) turned out to be 1200 nM.
